In PMC6486635, “IMP1 KH1 and KH2 domains create a structural platform with unique RNA recognition and re-modelling properties”:

B1: UGCGU (ssRNA)
RNA: UGCGU
B2: UUCCG (ssRNA)
RNA: UUCCG
B3: UCCGC (ssRNA)
RNA: UCCGC
B4: UCUGU (ssRNA)
RNA: UCUGU
B5: UCCCU (ssRNA)
RNA: UCCCU
B6: UUCGU (ssRNA)
RNA: UUCGU
B7: MYCRNA (ssRNA)
RNA: CACAGCAUACAUCCUGUCCGUC
B8: UCCGU (ssRNA)
RNA: UCCGU
B9: UCCCG (ssRNA)
RNA: UCCCG
B10: UACGU (ssRNA)
RNA: UACGU
B11: UCAGU (ssRNA)
RNA: UCAGU

Experiments:
IMP1 KH1KH2DD [1] = target: T1, IMP1 KH1KH2DD (Homo sapiens, UniProt Q9NZI8 194-369, K294D;E295D); assay: ITC; 10 mM sodium phosphate pH 7.4, 50 mM NaCl; ITC 25 C with 2 mM TCEP; BLI 30 C with 0.5 mM TCEP and 0.5 mg/ml BSA; NMR 0.5 mM TCEP; RNAsin 40-100 u/ml; conditions: protein: recombinant; tags: 6xHis-GST removed by TEV
IMP1 KH1DDKH2 = IMP1 KH1DDKH2 (Homo sapiens, UniProt Q9NZI8 194-369, K213D;E214D); assay: as above; conditions: protein: recombinant; tags: 6xHis-GST removed by TEV
IMP1 KH1KH2 wild type = IMP1 KH1KH2 wild type (Homo sapiens, UniProt Q9NZI8 194-369); assay: BLI; 10 mM sodium phosphate pH 7.4, 50 mM NaCl; ITC 25 C with 2 mM TCEP; BLI 30 C with 0.5 mM TCEP and 0.5 mg/ml BSA; NMR 0.5 mM TCEP; RNAsin 40-100 u/ml; conditions: protein: recombinant; tags: 6xHis-GST removed by TEV; label: 5'-biotin
IMP1 KH1KH2DD [2] = target: T1, IMP1 KH1KH2DD; assay: as above; conditions: protein: recombinant; tags: 6xHis-GST removed by TEV; label: 5'-biotin

T1 sequence (Q9NZI8 194-369 K294D/E295D): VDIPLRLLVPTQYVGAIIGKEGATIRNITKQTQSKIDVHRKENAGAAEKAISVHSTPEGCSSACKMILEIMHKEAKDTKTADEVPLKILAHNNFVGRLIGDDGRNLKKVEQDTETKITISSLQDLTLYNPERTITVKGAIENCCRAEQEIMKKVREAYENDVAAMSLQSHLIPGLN
Sequence of IMP1 KH1DDKH2 (Q9NZI8 194-369 K213D/E214D): as the sequence (Q9NZI8 194-369 K294D/E295D) above, with K20D, E21D, D101K, D102E counted along it
Sequence of IMP1 KH1KH2 wild type (Q9NZI8 194-369): as the sequence (Q9NZI8 194-369 K294D/E295D) above, with D101K, D102E counted along it

Binder	Kd (IMP1 KH1KH2DD [1])	further results
B1	26 ± 2 µM	–
B2	–	Kd (IMP1 KH1DDKH2): 124 ± 15 µM
B3	0.8 ± 0.04 µM	–
B4	2.6 ± 0.08 µM	–
B5	–	binding result (IMP1 KH1KH2DD [1]): no binding
B6	25 ± 2 µM	–
B7	–	Kd (IMP1 KH1KH2 wild type): 0.046 ± 0.008 µM; Kd (IMP1 KH1KH2DD [2]): 1.76 ± 0.2 µM
B8	0.5 ± 0.01 µM	–
B9	–	Kd (IMP1 KH1DDKH2): 100 ± 4 µM
B10	25 ± 1 µM	–
B11	1 ± 0.03 µM	–
